Tests used:
cynomolgus monkey BCMA = biological target: T1, cynomolgus monkey BCMA (cynomolgus monkey); assay: flow cytometry, HEK293T/cyno BCMA cells
T1 construct: whole, on cells; also called cyno BCMA; HEK293T/cyno BCMA cells

human BCMA [1] = biological target: T2, human BCMA (human, UniProt Q02223 1-184); assay: flow cytometry, NCI-H929 cells
T2 construct: whole, on cells; the cell line is named under assay; also called TNFRSF17; CD269
T2 sequence (looked up): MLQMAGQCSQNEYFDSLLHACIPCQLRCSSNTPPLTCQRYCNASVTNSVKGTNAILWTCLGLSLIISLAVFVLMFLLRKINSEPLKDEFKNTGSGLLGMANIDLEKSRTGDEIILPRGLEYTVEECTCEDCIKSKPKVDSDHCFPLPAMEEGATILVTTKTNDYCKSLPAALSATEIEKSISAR

[2] = biological target: T3, biotinylated human BCMA-Fc, Avitag recombinant protein (ACRO Biosystems, #BC7-H82F0) (human, UniProt Q02223 1-54, biotinylated); assay: BLI (Octet Red96e), biotinylated BCMA-Fc on SA sensor, antibody in solution, 1:1 global fit
T3 construct: extracellular domain; Bought protein; also called human BCMA protein; recombinant human BCMA-ECD-Fc; not shown: Fc of the bought fusion protein; Avitag
T3 sequence (looked up): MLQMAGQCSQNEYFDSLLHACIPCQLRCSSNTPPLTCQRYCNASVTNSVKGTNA

human BCMA [3] = biological target: T2, human BCMA; assay: flow cytometry, HEK293T/hBCMA cells
[4] = biological target: T4, cynomolgus monkey BCMA (ACRO Biosystems, #BCA-C82F4) (cynomolgus monkey, UniProt A0A2K5UD97 1-53); assay: BLI (Octet Red96e), cyBCMA.Fc on SA sensor, 1:1 global fitting
T4 construct: Bought protein; also called cyBCMA.Fc
T4 sequence (A0A2K5UD97 entry or part of it): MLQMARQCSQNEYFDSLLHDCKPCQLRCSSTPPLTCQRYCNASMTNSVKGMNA

[5] = biological target: T5, human BCMA on NCI-H929 cells (ATCC, CRL-9068) (human, UniProt Q02223 1-184); assay: cell-based or functional assay
T5 sequence (looked up): T2 sequence (looked up)

[6] = biological target: T5, human BCMA on NCI-H929 cells (ATCC, …); assay: cell-based or functional assay; remark: listed apart in the source
[7] = biological target: T4, cynomolgus monkey BCMA (ACRO …); assay: BLI; KD for cynomolgus monkey BCMA divided by KD for human BCMA
[8] = biological target: T6, cynomolgus monkey CD3 (TCR/CD3 complex) on cynomolgus monkey T cells (cynomolgus monkey); assay: flow cytometry (FACS) on cynomolgus monkey T cells
T6 construct: whole, on cells
T6 sequence (Q95LI5 22-198, one chain of several): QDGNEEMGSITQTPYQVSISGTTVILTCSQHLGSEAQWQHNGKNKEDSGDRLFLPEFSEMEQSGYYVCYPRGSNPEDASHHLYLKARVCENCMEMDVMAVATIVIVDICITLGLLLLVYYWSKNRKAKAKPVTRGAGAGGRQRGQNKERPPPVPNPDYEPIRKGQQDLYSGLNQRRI

[9] = biological target: T7, human CD3 (TCR/CD3 complex) on human T cells (human, UniProt P07766 23-207); assay: flow cytometry (FACS) on human T cells, Experiment 1
T7 construct: whole, on cells
T7 sequence (P07766 23-207, one chain of several): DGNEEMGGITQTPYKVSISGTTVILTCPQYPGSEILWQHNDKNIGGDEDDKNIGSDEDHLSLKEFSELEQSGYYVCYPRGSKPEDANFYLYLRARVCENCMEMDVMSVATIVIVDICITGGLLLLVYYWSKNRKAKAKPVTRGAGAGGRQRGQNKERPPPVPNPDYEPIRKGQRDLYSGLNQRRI

[10] = biological target: T5, human BCMA on NCI-H929 cells (ATCC, …); assay: cell-based or functional assay; remark: listed apart in the source
[11] = biological target: T8, biotinylated human BCMA-Fc, Avitag recombinant protein (ACRO Biosystems, #BC7-H82F0) (human, UniProt Q02223 1-54, biotinylated (Avitag)); assay: BLI (Octet Red96e), biotinylated BCMA-Fc on SA sensor, 1:1 global fitting;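 further: Anti-BCMA antibodies analysed as binding partners of the captured BCMA antigen, with reference signals removed by double referencing before kinetic fitting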
T8 construct: extracellular domain; Bought protein; also called huBCMA.Fc; recombinant human BCMA-ECD-Fc
T8 sequence (looked up): T3 sequence (looked up)

[12] = biological target: T7, human CD3 (TCR/CD3 complex) on human T …; assay: flow cytometry (FACS) on human T cells, Experiment 3
[13] = biological target: T9, human PD-L1 on cells (CHO-K1/hPDL1; MDA-MB-231) (human, UniProt Q9NZQ7 19-290); assay: competition FACS: biotinylated PD-1 to CHO-K1/hPDL1 cells (Experiment 1)
T9 construct: whole, on cells
T9 sequence (Q9NZQ7 19-290): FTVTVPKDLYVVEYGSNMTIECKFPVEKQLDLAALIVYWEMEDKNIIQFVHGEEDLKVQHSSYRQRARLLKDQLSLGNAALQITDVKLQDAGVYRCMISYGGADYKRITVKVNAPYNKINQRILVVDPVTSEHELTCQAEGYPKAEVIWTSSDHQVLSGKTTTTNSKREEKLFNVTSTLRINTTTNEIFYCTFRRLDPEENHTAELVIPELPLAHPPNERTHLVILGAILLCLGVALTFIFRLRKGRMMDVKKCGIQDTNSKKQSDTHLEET

[14] = biological target: T10, human CTLA4 on cells (CHO-K1/hCTLA4; HEK293/hCTLA4; 293F-hCTLA4) (human, UniProt P16410 36-223); assay: cell-based or functional assay
T10 sequence (P16410 36-223): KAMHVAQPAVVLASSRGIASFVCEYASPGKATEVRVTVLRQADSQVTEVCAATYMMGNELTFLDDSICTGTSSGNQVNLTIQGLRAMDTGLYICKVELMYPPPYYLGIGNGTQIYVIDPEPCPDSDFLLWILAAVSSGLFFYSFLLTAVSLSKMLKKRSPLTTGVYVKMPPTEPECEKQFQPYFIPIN

[15] = biological target: T11, human CTLA4-His protein (ACRO Biosystems, #CT4-H5229) (human, UniProt P16410 36-161); assay: ELISA, coated hCTLA4-His
T11 construct: extracellular domain; bought; also called hCTLA4-His; human CTLA4 extracellular domain recombinant protein
T11 sequence (P16410 36-161): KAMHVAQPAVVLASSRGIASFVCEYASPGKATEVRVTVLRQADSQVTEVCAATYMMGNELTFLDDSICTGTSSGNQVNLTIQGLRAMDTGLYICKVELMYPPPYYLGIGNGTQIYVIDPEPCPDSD

[16] = biological target: T12, biotinylated human CTLA4-Fc protein (ACRO Biosystems, #CT4-H82F3) (human, UniProt P16410 36-161, biotinylated); assay: competition ELISA: biotinylated hCTLA4-Fc to coated B7-1-Fc
T12 construct: bought; also called human CTLA4 protein
T12 sequence (P16410 36-161 limits assumed): as the sequence (P16410 36-161) above

[17] = biological target: T10, human CTLA4 on cells (CHO-K1/hCTLA4; …); assay: competition FACS: biotinylated B7-1-Fc to CHO-K1/hCTLA4 cells (Test 1)
[18] = biological target: T13, human PD-L1-His protein (ACRO Biosystems, #PD1-H5229) (human, UniProt Q9NZQ7 19-238); assay: ELISA, coated hPD-L1-His
T13 construct: extracellular domain; bought; also called hPDL1-His; human PD-L1 extracellular domain recombinant protein
T13 sequence (Q9NZQ7 19-238): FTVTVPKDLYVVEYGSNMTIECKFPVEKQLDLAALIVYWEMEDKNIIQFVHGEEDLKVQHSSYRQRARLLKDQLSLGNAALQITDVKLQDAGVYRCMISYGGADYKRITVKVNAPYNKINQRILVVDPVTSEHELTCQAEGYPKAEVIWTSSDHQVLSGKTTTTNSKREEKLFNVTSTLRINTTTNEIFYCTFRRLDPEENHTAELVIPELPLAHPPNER

[19] = biological target: T10, human CTLA4 on cells (CHO-K1/hCTLA4; …); assay: FACS, CHO-K1/hCTLA4 cells (Test 1)
[20] = biological target: T9, human PD-L1 on cells (CHO-K1/hPDL1; …); assay: FACS, CHO-K1/hPDL1 cells (Experiment 1)

B1: PR001035, anti-BCMA HCAb antibody, clone 1005P36F3 (antibody, human IgG1, V domains shown)
VH: EVQLVETGGGLIQPGGSLRLSCAASGFTVSSNYMTWVRQAPGKGLEWVSVIFSGGSTYYADSVKGRFTISRDNSKNTLYLQMNSLRAEDTAVYYCARRIAVAGHDVFDIWGQGTMVTVSS
notes: Heavy-chain-only antibody (HCAb), human IgG1 Fc, no light chain
Cynomolgus monkey BCMA
  Maximum MFI: 10800
Human BCMA [1]
  EC50: 1190 pM
  Maximum MFI: 113000
[2]
  Kd: 276 pM
  koff: 8.98e-05 s⁻¹
  kon: 325000 M⁻¹ s⁻¹
Human BCMA [3]
  EC50: 336 pM
  Maximum MFI: 39800

B2: PR001990 (bispecific antibody, human IgG1, lambda, L234A L235A)
light: QAVVTQEPSLTVSPGGTVTLTCRSSTGAVTTSNYANWVQQKPGQAPRGLIGGTNKRAPWTPARFSGSLLGDKAALTLLGAQPEDEAEYFCALWYSNLWVFGGGTKLTVLGQPKAAPSVTLFPPSSEELQANKATLVCLISDFYPGAVTVAWKADSSPVKAGVETTTPSKQSNNKYAASSYLSLTPEQWKSHRSYSCQVTHEGSTVEKTVAPTECS
heavy: EVQLLESGGGLVQPGGSLRLSCAASGFTFNTYAMNWVRQAPGKGLEWVSRIRSKYNNYATYYADSVKDRFTISRDDSKSTLYLQMNSLRAEDTAVYYCVRHGNFGNSYVSWFAYWGQGTLVTVSSASTKGPSVFPLAPSSKSTSGGTAALGCLVKDYFPEPVTVSWNSGALTSGVHTFPAVLQSSGLYSLSSVVTVPSSSLGTQTYICNVNHKPSNTKVDKKVEPKSCDKTHTCPPCPAPEAAGGPSVFLFPPKPKDTLMISRTPEVTCVVVDVSHEDPEVKFNWYVDGVEVHNAKTKPREEQYNSTYRVVSVLTVLHQDWLNGKEYKCKVSNKALGAPIEKTISKAKGQPREPQVYTLPPCREEMTKNQVSLWCLVKGFYPSDIAVEWESNGQPENNYKTTPPVLDSDGSFFLYSKLTVDKSRWQQGNVFSCSVMHEALHNHYTQKSLSLSPGK
chain: EVQLVETGGGLIQPGGSLRLSCAASGFTVSDNYMTWVRQAPGKGLEWVSVIFSGGNTYYADSVKGRFTISRDNAKNTLYLQMNSLRAEDTALYYCARRNYDDTRGTDVFDIWGQGTMVTVSSASEPKSSDKTHTCPPCPAPEAAGGPSVFLFPPKPKDTLMISRTPEVTCVVVDVSHEDPEVKFNWYVDGVEVHNAKTKPREEQYNSTYRVVSVLTVLHQDWLNGKEYKCKVSNKALGAPIEKTISKAKGQPREPQVCTLPPSREEMTKNQVSLSCAVKGFYPSDIAVEWESNGQPENNYKTTPPVLDSDGSFFLVSKLTVDKSRWQQGNVFSCSVMHEALHNHYTQKSLSLSPGK
[4]
  Kd: 3350 pM
  koff: 0.0025 s⁻¹
  kon: 746000 M⁻¹ s⁻¹
[5]
  Killing EC50 (nM), T cell + NCI-H929, + 62.5 ng/ml sBCMA: 0.176 nM
  Killing EC50 (nM), T cell + NCI-H929, + 125 ng/mL sBCMA: 0.234 nM
  Killing EC50 (nM), T cell + NCI-H929, + 250 ng/mL sBCMA: 0.387 nM
  Killing EC50 (nM), T cell + NCI-H929, + 500 ng/mL sBCMA: 0.546 nM
  Killing EC50 (nM), T cell + NCI-H929, no sBCMA: 0.0787 nM
[6]
  Killing EC50 (nM), T cell + NCI-H929, + 10 ng/mL sAPRIL: 0.0879 nM
  Killing EC50 (nM), T cell + NCI-H929, + 10 ng/mL sBAFF: 0.0787 nM
  Killing EC50 (nM), T cell + NCI-H929, + 100 ng/mL sAPRIL: 0.154 nM
  Killing EC50 (nM), T cell + NCI-H929, + 100 ng/mL sBAFF: 0.094 nM
  Killing EC50 (nM), T cell + NCI-H929, no soluble ligand: 0.0733 nM
[7]
  KD ratio (cy BCMA/hu BCMA): 1.72
[8]
  Maximum MFI: 15600 MFI
[9]
  Maximum MFI: 5450 MFI
[10]
  IFN-γ release, EC50: 1360 pM
  IFN-γ release, Maximum: 1230 pg/mL
  IL-2 release, EC50: 5290 pM
  IL-2 release, Maximum: 185 pg/mL
  IL-6 release, EC50: 8200 pM
  IL-6 release, Maximum: 273 pg/mL
  IL-10 release, EC50: 1960 pM
  IL-10 release, Maximum: 777 pg/mL
  NCI-H929 killing, EC50: 590 pM
  NCI-H929 killing, Maximum killing rate %: 61.4%
  TNF-α release, EC50: 5490 pM
  TNF-α release, Maximum: 1200 pg/mL
[11]
  Kd: 1950 pM
  koff: 0.000629 s⁻¹
  kon: 322000 M⁻¹ s⁻¹
[12]
  Maximum MFI: 350000 MFI

B3: PR000301 (bispecific antibody, human IgG1, kappa)
chain: EVQLVESGGGLIQPGGSLRLSCAVSGFTVSKNYMSWVRQAPGKGLEWVSVVYSGGSKTYADSVKGRFTISRDNSKNTLYLQMNSLRAEDTAVYYCARAVPHSPSSFDIWGQGTMVTVSSKLEPKSSDKTHTPPPPPRTDIQMTQSPSTLSASVGDRVTVTCRASQSIYIWLAWYQQKPGKAPNLLIYKASSLETGVPSRFSGSGSGTEFTLTISSLQPDDFATYYCQQYYGSSRTFGQGTKVEIKRTVAAPSVFIFPPSDEQLKSGTASVVCLLNNFYPREAKVQWKVDNALQSGNSQESVTEQDSKDSTYSLSSTLTLSKADYEKHKVYACEVTHQGLSSPVTKSFNRGEC
heavy: not shown
[13]
  IC50: 882 pM
  Maximum inhibition rate (%): 96.2%
[14]
  ADCC killing of 293F-hCTLA4 cells, EC50: 31 pM
  ADCC killing of 293F-hCTLA4 cells, Maximum killing rate (%): 36.6%
[15]
  EC50: 350 pM
  Maximum OD450: 2.92 OD450
[16]
  IC50: 2510 pM
  Maximum inhibition rate (%): 98.3%
[17]
  IC50: 3210 pM
  Maximum inhibition rate (%): 99.9%
[18]
  EC50: 131 pM
  Maximum OD450: 3.53 OD450
[19]
  EC50: 1940 pM
  Maximum MFI: 2360 MFI
[20]
  EC50: 918 pM
  Maximum MFI: 16600 MFI

B4: PR000300 (bispecific antibody, human IgG1, kappa)
light: DIQMTQSPSTLSASVGDRVTVTCRASQSIYIWLAWYQQKPGKAPNLLIYKASSLETGVPSRFSGSGSGTEFTLTISSLQPDDFATYYCQQYYGSSRTFGQGTKVEIKRTVAAPSVFIFPPSDEQLKSGTASVVCLLNNFYPREAKVQWKVDNALQSGNSQESVTEQDSKDSTYSLSSTLTLSKADYEKHKVYACEVTHQGLSSPVTKSFNRGEC
chain: not shown
notes: PR000070 + VH of PR000184
[13]
  IC50: 677 pM
  Maximum inhibition rate (%): 96.6%
[14]
  ADCC killing of 293F-hCTLA4 cells, EC50: 8 pM
  ADCC killing of 293F-hCTLA4 cells, Maximum killing rate (%): 23.8%
[15]
  EC50: 567 pM
  Maximum OD450: 2.95 OD450
[16]
  IC50: 2090 pM
  Maximum inhibition rate (%): 98.2%
[17]
  IC50: 6420 pM
  Maximum inhibition rate (%): 101%
[18]
  EC50: 108 pM
  Maximum OD450: 3.52 OD450
[19]
  EC50: 2910 pM
  Maximum MFI: 2620 MFI
[20]
  EC50: 884 pM
  Maximum MFI: 21000 MFI

— patent US20230322953A1 (HARBOUR BIOMED SHANGHAI, published 2023)
